Measurements as given in paper PMC9929602.

Target: tetraspanin CD81 (human (endogenous in THP-1)) (UniProt P60033)
Chain of UniProt P60033 (P60033 whole entry): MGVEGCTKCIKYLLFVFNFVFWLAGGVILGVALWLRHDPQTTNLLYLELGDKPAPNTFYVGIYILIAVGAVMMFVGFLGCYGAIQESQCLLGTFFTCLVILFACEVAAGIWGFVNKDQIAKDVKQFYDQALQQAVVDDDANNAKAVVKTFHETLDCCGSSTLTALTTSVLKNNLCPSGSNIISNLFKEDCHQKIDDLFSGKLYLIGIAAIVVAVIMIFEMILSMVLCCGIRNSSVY

AhpC-6×His (recombinant M. abscessus AhpC) (enzyme)
reduction of infectivity of Mab WT (CFU) in THP-1 cells pre-incubated with 2 μg soluble AhpC-His, against untreated cells or cells pre-incubated with Hsp16.7-His: 30%
